From patent publication US20080213284A1
Read-outs that look alike come from different tables or passages of the source.

Key:
[1] = target: receptor on VERO E6 cells (not identified in the filing); assay: FACS competition against S2-Fc (330 ng/mL) on VERO E6 cells; agent at 10 µg/mL
[2] = target: receptor on VERO E6 cells (not identified in the filing)
[3] = target: receptor on VERO E6 cells (not identified in the filing); assay: FACS competition against S2-Fc (330 ng/mL) on VERO E6 cells; agent at 1 µg/mL

| Substance | Percent of Inhibition [1] [%] | Percent of Inhibition [2] [%] | Percent of Inhibition [3] [%] |
| --- | --- | --- | --- |
| Negative control (blocking agent) | 0 | 0 | 0 |
| recombinant RBD2 (from UniProt P59594 284-735) | 100 | 100 | 100 |
